According to patent US20260092110A1 (Kyowa Kirin, published 2026):

T1: human MOG (hMOG) expressed on HEK293, Expi293F or L929 cells (human, UniProt Q16653 30-247)
T1 construct: also called hMOG/HEK293; hMOG/HEK293F
T1 chain: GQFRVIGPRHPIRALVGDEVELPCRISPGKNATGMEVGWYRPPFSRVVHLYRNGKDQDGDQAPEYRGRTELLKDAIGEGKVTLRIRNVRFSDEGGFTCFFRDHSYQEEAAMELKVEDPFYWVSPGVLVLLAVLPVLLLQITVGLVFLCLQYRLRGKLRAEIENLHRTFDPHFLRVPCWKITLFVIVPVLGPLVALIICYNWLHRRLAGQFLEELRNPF


Tests used:
[1] = target: T1, human MOG (hMOG) expressed on HEK293, …; assay: flow cytometry on L929 cells expressing human MOG (hMOG/L929); antibody titrated, RPE-labelled goat anti-human antibody
Excerpt: pEF6_hMOG obtained in Example 5 was introduced to mouse connective tissue-derived fibroblast L929 cells [American Type Culture Collection (ATCC) No.: CCL-1] using HilyMax (manufactured by Dojindo Laboratories). The gene-transfected cells were selected using an antibiotic substance, Blasticidin (manufactured by Invitrogen) and then cloned by the limiting dilution method. Using the L929 cells expressing hMOG on the cell surface (abbreviated as hMOG/L929 below), the reactivities of the bispecific antibodies were analyzed by the method described below.
The hMOG/L929 cells were suspended in a Staining Buffer (SB) of PBS containing 0.1% NaN₃ and 1% FBS and dispensed to a round-bottom 96-well plate (manufactured by Becton Dickinson). […] After suspending the pellets, the plate was left to stand at ice temperature for 30 minutes. The supernatants were removed after further centrifugation (2000 rpm, 4° C., two minutes), and the pellets were washed with SB. Then, 1 μg/mL RPE fluorescently labeled goat anti-human antibody (manufactured by Southern Biotech) was added, and the plate was incubated at ice temperature for 30 minutes. After washing with SB, the cells were suspended in SB, and the fluorescence intensities of the cells were measured with a flow cytometer FACS CANTO II (manufactured by Becton Dickinson). The results are shown in FIGS. 12A to 12C and FIGS. 13A and 13B.

[2] = target: T2, extracellular domain protein of rat MOG to which GST is added at the C-terminus (rMOG-GST) (rat); assay: SPR as in Example 8 (antibody captured, rMOG-GST analyte)
T2 construct: whole construct entry
T2 sequence (chain, as listed by the source limits assumed): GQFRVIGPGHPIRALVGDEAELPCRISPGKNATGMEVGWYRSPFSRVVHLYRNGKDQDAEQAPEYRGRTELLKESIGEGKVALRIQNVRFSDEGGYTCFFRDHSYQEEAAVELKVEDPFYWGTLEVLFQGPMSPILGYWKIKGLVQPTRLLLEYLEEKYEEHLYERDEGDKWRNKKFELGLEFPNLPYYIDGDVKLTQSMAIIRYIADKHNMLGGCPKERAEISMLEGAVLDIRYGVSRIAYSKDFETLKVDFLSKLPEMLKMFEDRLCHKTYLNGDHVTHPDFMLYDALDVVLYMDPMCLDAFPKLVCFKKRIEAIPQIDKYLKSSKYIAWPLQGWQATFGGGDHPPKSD
Experimental: The antibodies were immobilized on CM5 sensor chips using a Human antibody Capture kit, and the binding abilities were evaluated using rMOG-GST produced in Example 4 as an analyte. The obtained sensorgrams were analyzed with BIA evaluation software, and the dissociation constants (KD values) were thus calculated.
Binding of the bispecific antibodies obtained in Example 6 and Example 16 to MOG was evaluated by the same method as that of Example 8.

| Binder | binding result [1] | Kd [2] | koff [2] | kon [2] |
| --- | --- | --- | --- | --- |
| AVM-MOG01 IgG4PE(R409K) antibody (bispecific antibody, copies: 1 + 1 + 1 + 1) heavy 1: EVQLVESGGGLVQPGRSLKLSCAASGFTFSNYAMAWVRRAPTKGLEWVASISNGGGNTYYRDSVKGRFTISRDDAKNTLYLQMDSLRSEDTATYYCARHGNYIYYGSFFDYWGQGVMVTVSSASTKGPSVFPLAPCSRSTSESTAALGCLVKDYFPEPVTVSWNSGALTSGVHTFPAVLQSSGLYSLSSVVTVPSSSLGTKTYTCNVDHKPSNTKVDKRVESKYGPPCPPCPAPEFEGGPSVFLFPPKPKDTLMISRTPEVTCVVVDVSQEDPEVQFNWYVDGVEVHNAKTKPREEQFNSTYRVVSVLTVLHQDWLNGKEYKCKVSNKGLPSSIEKTISKAKGQPREPQVYTLPPCQEEMTKNQVSLWCLVKGFYPSDIAVEWESNGQPENNYKTTPPVLDSDGSFFLYSKLTVDKSRWQEGNVFSCSVMHEALHNHYTQKSLSLSLGKDYKDDDDK heavy 2: QVQLQQSGAGLLKPSETLSLTCAVSGGSFSGYYWTWIRQRPGKGLEWIGEINHRGSTDYNPSLKSRVTMSIDTSKSQFSLNLKSVTAADTAVYYCARAAWGSCYDGTCYPAEYFQYWGQGTLVTVSSASTKGPSVFPLAPCSRSTSESTAALGCLVKDYFPEPVTVSWNSGALTSGVHTFPAVLQSSGLYSLSSVVTVPSSSLGTKTYTCNVDHKPSNTKVDKRVESKYGPPCPPCPAPEFEGGPSVFLFPPKPKDTLMISRTPEVTCVVVDVSQEDPEVQFNWYVDGVEVHNAKTKPREEQFNSTYRVVSVLTVLHQDWLNGKEYKCKVSNKGLPSSIEKTISKAKGQPREPQVCTLPPSQEEMTKNQVSLSCAVKGFYPSDIAVEWESNGQPENNYKTTPPVLDSDGSFFLVSKLTVDKSRWQEGNVFSCSVMHEALHNHYTQKSLSLSLGKHHHHHH light 1: QFVLSQPNSVSTNLGSTVKLSCKRSTGNIGSNYVSWYQQHEGRSPTTMIYRDDKRPDGVPDRFSGSIDRSSDSALLTINNVQTEDEADYFCQSYSSGINIFGGGTKLTVLGQPKAAPSVTLFPPSSEELQANKATLVCLISDFYPGAVTVAWKADSSPVKAGVETTTPSKQSNNKYAASSYLSLTPEQWKSHRSYSCQVTHEGSTVEKTVAPTECS light 2: QSALTQPASVSGSPGQSITISCTGTSRDVGGYNYVSWYQQHPGKAPKLMIYDVNNRPSGVSNRFSGSKSGNTASLTISGLQAEDEADYFCSSYTSSSTPVVFGGGTKLTVLGQPKAAPSVTLFPPSSEELQANKATLVCLISDFYPGAVTVAWKADSSPVKAGVETTTPSKQSNNKYAASSYLSLTPEQWKSHRSYSCQVTHEGSTVEKTVAPTECS | binds | 12 nM | 0.0016 s⁻¹ | 130000 M⁻¹ s⁻¹ |
| AVM IgG4PE(R409K)_AVM Fab ANTIBODY (antibody) heavy 1: not shown heavy 2: EVQLVESGGGLVQPGRSLKLSCAASGFTFSNYAMAWVRRAPTKGLEWVASISNGGGNTYYRDSVKGRFTISRDDAKNTLYLQMDSLRSEDTATYYCARHGNYIYYGSFFDYWGQGVMVTVSSASTKGPSVFPLAPCSRSTSESTAALGCLVKDYFPEPVTVSWNSGALTSGVHTFPAVLQSSGLYSLSSVVTVPSSSLGTKTYTCNVDHKPSNTKVDKRV light: QFVLSQPNSVSTNLGSTVKLSCKRSTGNIGSNYVSWYQQHEGRSPTTMIYRDDKRPDGVPDRFSGSIDRSSDSALLTINNVQTEDEADYFCQSYSSGINIFGGGTKLTVLGQPKAAPSVTLFPPSSEELQANKATLVCLISDFYPGAVTVAWKADSSPVKAGVETTTPSKQSNNKYAASSYLSLTPEQWKSHRSYSCQVTHEGSTVEKTVAPTECS | no binding | – | – | – |
| AVM IgG4PE(R409K)_AVMsscFv ANTIBODY (antibody) heavy 1: EVQLVESGGGLVQPGRSLKLSCAASGFTFSNYAMAWVRRAPTKGLEWVASISNGGGNTYYRDSVKGRFTISRDDAKNTLYLQMDSLRSEDTATYYCARHGNYIYYGSFFDYWGQGVMVTVSSASTKGPSVFPLAPCSRSTSESTAALGCLVKDYFPEPVTVSWNSGALTSGVHTFPAVLQSSGLYSLSSVVTVPSSSLGTKTYTCNVDHKPSNTKVDKRVESKYGPPCPPCPAPEFEGGPSVFLFPPKPKDTLMISRTPEVTCVVVDVSQEDPEVQFNWYVDGVEVHNAKTKPREEQFNSTYRVVSVLTVLHQDWLNGKEYKCKVSNKGLPSSIEKTISKAKGQPREPQVYTLPPCQEEMTKNQVSLWCLVKGFYPSDIAVEWESNGQPENNYKTTPPVLDSDGSFFLYSKLTVDKSRWQEGNVFSCSVMHEALHNHYTQKSLSLSLGGGSGGGGSGGGGSGGGGSEVQLVESGGGLVQPGRSLKLSCAASGFTFSNYAMAWVRRAPTKGLEWVASISNGGGNTYYRDSVKGRFTISRDDAKNTLYLQMDSLRSEDTATYYCARHGNYIYYGSFFDYWGQGVMVTVSSGGGGSGGRASGGGGSQFVLSQPNSVSTNLGSTVKLSCKRSTGNIGSNYVSWYQQHEGRSPTTMIYRDDKRPDGVPDRFSGSIDRSSDSALLTINNVQTEDEADYFCQSYSSGINIFGGGTKLTVLDYKDDDDK heavy 2: EVQLVESGGGLVQPGRSLKLSCAASGFTFSNYAMAWVRRAPTKGLEWVASISNGGGNTYYRDSVKGRFTISRDDAKNTLYLQMDSLRSEDTATYYCARHGNYIYYGSFFDYWGQGVMVTVSSASTKGPSVFPLAPCSRSTSESTAALGCLVKDYFPEPVTVSWNSGALTSGVHTFPAVLQSSGLYSLSSVVTVPSSSLGTKTYTCNVDHKPSNTKVDKRVESKYGPPCPPCPAPEFEGGPSVFLFPPKPKDTLMISRTPEVTCVVVDVSQEDPEVQFNWYVDGVEVHNAKTKPREEQFNSTYRVVSVLTVLHQDWLNGKEYKCKVSNKGLPSSIEKTISKAKGQPREPQVCTLPPSQEEMTKNQVSLSCAVKGFYPSDIAVEWESNGQPENNYKTTPPVLDSDGSFFLVSKLTVDKSRWQEGNVFSCSVMHEALHNHYTQKSLSLSLGKHHHHHH light: QFVLSQPNSVSTNLGSTVKLSCKRSTGNIGSNYVSWYQQHEGRSPTTMIYRDDKRPDGVPDRFSGSIDRSSDSALLTINNVQTEDEADYFCQSYSSGINIFGGGTKLTVLGQPKAAPSVTLFPPSSEELQANKATLVCLISDFYPGAVTVAWKADSSPVKAGVETTTPSKQSNNKYAASSYLSLTPEQWKSHRSYSCQVTHEGSTVEKTVAPTECS | no binding | – | – | – |
| AVM IgG4PE(R409K)_MOG01sscFv antibody (bispecific antibody, copies: 1 + 1 + 2) heavy 1: EVQLVESGGGLVQPGRSLKLSCAASGFTFSNYAMAWVRRAPTKGLEWVASISNGGGNTYYRDSVKGRFTISRDDAKNTLYLQMDSLRSEDTATYYCARHGNYIYYGSFFDYWGQGVMVTVSSASTKGPSVFPLAPCSRSTSESTAALGCLVKDYFPEPVTVSWNSGALTSGVHTFPAVLQSSGLYSLSSVVTVPSSSLGTKTYTCNVDHKPSNTKVDKRVESKYGPPCPPCPAPEFEGGPSVFLFPPKPKDTLMISRTPEVTCVVVDVSQEDPEVQFNWYVDGVEVHNAKTKPREEQFNSTYRVVSVLTVLHQDWLNGKEYKCKVSNKGLPSSIEKTISKAKGQPREPQVYTLPPCQEEMTKNQVSLWCLVKGFYPSDIAVEWESNGQPENNYKTTPPVLDSDGSFFLYSKLTVDKSRWQEGNVFSCSVMHEALHNHYTQKSLSLSLGGGSGGGGSGGGGSGGGGSQVQLQQSGAGLLKPSETLSLTCAVSGGSFSGYYWTWIRQRPGKGLEWIGEINHRGSTDYNPSLKSRVTMSIDTSKSQFSLNLKSVTAADTAVYYCARAAWGSCYDGTCYPAEYFQYWGQGTLVTVSSGGGGSGGRASGGGGSQSALTQPASVSGSPGQSITISCTGTSRDVGGYNYVSWYQQHPGKAPKLMIYDVNNRPSGVSNRFSGSKSGNTASLTISGLQAEDEADYFCSSYTSSSTPVVFGGGTKLTVLDYKDDDDK heavy 2: EVQLVESGGGLVQPGRSLKLSCAASGFTFSNYAMAWVRRAPTKGLEWVASISNGGGNTYYRDSVKGRFTISRDDAKNTLYLQMDSLRSEDTATYYCARHGNYIYYGSFFDYWGQGVMVTVSSASTKGPSVFPLAPCSRSTSESTAALGCLVKDYFPEPVTVSWNSGALTSGVHTFPAVLQSSGLYSLSSVVTVPSSSLGTKTYTCNVDHKPSNTKVDKRVESKYGPPCPPCPAPEFEGGPSVFLFPPKPKDTLMISRTPEVTCVVVDVSQEDPEVQFNWYVDGVEVHNAKTKPREEQFNSTYRVVSVLTVLHQDWLNGKEYKCKVSNKGLPSSIEKTISKAKGQPREPQVCTLPPSQEEMTKNQVSLSCAVKGFYPSDIAVEWESNGQPENNYKTTPPVLDSDGSFFLVSKLTVDKSRWQEGNVFSCSVMHEALHNHYTQKSLSLSLGKHHHHHH light: QFVLSQPNSVSTNLGSTVKLSCKRSTGNIGSNYVSWYQQHEGRSPTTMIYRDDKRPDGVPDRFSGSIDRSSDSALLTINNVQTEDEADYFCQSYSSGINIFGGGTKLTVLGQPKAAPSVTLFPPSSEELQANKATLVCLISDFYPGAVTVAWKADSSPVKAGVETTTPSKQSNNKYAASSYLSLTPEQWKSHRSYSCQVTHEGSTVEKTVAPTECS | binds | 200 nM | 0.01 s⁻¹ | 51000 M⁻¹ s⁻¹ |
| AVM IgG4PE(R409K)_MOG01 Fab antibody (bispecific antibody) heavy 1: not shown heavy 2: QVQLQQSGAGLLKPSETLSLTCAVSGGSFSGYYWTWIRQRPGKGLEWIGEINHRGSTDYNPSLKSRVTMSIDTSKSQFSLNLKSVTAADTAVYYCARAAWGSCYDGTCYPAEYFQYWGQGTLVTVSSASTKGPSVFPLAPCSRSTSESTAALGCLVKDYFPEPVTVSWNSGALTSGVHTFPAVLQSSGLYSLSSVVTVPSSSLGTKTYTCNVDHKPSNTKVDKRV light: QFVLSQPNSVSTNLGSTVKLSCKRSTGNIGSNYVSWYQQHEGRSPTTMIYRDDKRPDGVPDRFSGSIDRSSDSALLTINNVQTEDEADYFCQSYSSGINIFGGGTKLTVLGQPKAAPSVTLFPPSSEELQANKATLVCLISDFYPGAVTVAWKADSSPVKAGVETTTPSKQSNNKYAASSYLSLTPEQWKSHRSYSCQVTHEGSTVEKTVAPTECS | binds | 34 nM | 0.0035 s⁻¹ | 100000 M⁻¹ s⁻¹ |
